Assay results: PMC5278397, “Discovery of a junctional epitope antibody that stabilizes IL-6 and gp80 protein:protein interaction and modulates its downstream signaling” (Scientific Reports, 2017)
Values belong to the binder of their own block, whether it stands above or below them.

How the values were obtained:
[1] = target: T1, IL-6 (UniProt P05231 49-212); assay: SPR; IL-6 amine-coupled on CM5; gp80 (gp80V4) injected at 50 nM, 30 μl/min, 180 s, dissociation 360 s; 25 °C, HBS-P+; BIAcore 3000; without VHH6; settings: both partners purified
T1 construct: interleukin-6 (IL-6); Two in-house constructs are named (IL-6 and IL-6S21); IL-6 bought from R&D Systems was used 'for in vitro experiments'; source: E. coli, produced in house, purified

[2] = target: T2, IL-6–gp80 complex (IL-6 with gp80V4) (Homo sapiens, UniProt P05231;PDB); assay: SPR; His-tagged VHH6 or mutants captured from 1:5 diluted supernatants on a nickel charged NTA chip; equimolar mixture of IL-6 and gp80 (50 nM each) injected for 300 s at 10 μl/min, dissociation 300 s; BIAcore 3000; 25 °C, HBS-P+; settings: one partner purified
T2 construct: interleukin-6 (IL-6), as m2; also called equimolar mixture of IL-6 and gp80
T2 sequence (P05231 28-212, one chain of several): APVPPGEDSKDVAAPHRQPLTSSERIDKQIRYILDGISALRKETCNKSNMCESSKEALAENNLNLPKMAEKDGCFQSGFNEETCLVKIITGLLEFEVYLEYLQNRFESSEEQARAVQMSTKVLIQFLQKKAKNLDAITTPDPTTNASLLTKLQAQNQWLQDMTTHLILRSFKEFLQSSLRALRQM

[3] = target: T3, gp80 (Homo sapiens, UniProt P08887); assay: BLI; VHH6 captured through its His-tag on Ni-NTA tips; FusionIL-6, IL-6, gp80 and IL-6+gp80 in solution; Octet 384 Red; settings: both partners purified
T3 construct: IL-6 receptor gp80 (CD126), soluble; also called CD126; IL-6 specific receptor

[4] = target: T4, IL-6–gp80 complex (gp80 construct not stated) (Homo sapiens, UniProt P05231;P08887); assay: as above; settings: both partners purified
T4 construct: interleukin-6 (IL-6), as m2; gp80, as m5; also called dimeric complex IL-6–gp80; source: mixture of IL-6 and gp80

[5] = target: T5, IL-6-NT647 (UniProt P05231, NT647 dye on primary amines of lysine residues (NHS ester)); assay: MST; IL-6 or gp80 labelled with NT647, alone (VHH6 titrated up to 20 μM) or mixed with the unlabelled partner (10 nM IL-6NT647 and 20 nM gp80; VHH6 titrated in); Monolith NT.115, red channel; settings: both partners purified
T5 construct: interleukin-6 (IL-6); also called IL-6 labelled with NT647; source: labelled with the Monolith labelling Red NHS kit
T5 sequence (P05231 30-212): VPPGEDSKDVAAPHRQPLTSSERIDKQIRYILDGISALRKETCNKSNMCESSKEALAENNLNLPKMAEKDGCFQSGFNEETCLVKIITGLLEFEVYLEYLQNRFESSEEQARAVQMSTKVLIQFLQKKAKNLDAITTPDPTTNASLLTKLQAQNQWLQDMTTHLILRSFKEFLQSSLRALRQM

[6] = target: T6, gp80-NT647 (Homo sapiens, UniProt P08887, NT647 dye on primary amines of lysine residues (NHS ester)); assay: as above; settings: both partners purified
T6 construct: IL-6 receptor gp80 (CD126); also called gp80 labelled with NT647; source: labelled with the Monolith labelling Red NHS kit
T6 sequence (P08887 20-468): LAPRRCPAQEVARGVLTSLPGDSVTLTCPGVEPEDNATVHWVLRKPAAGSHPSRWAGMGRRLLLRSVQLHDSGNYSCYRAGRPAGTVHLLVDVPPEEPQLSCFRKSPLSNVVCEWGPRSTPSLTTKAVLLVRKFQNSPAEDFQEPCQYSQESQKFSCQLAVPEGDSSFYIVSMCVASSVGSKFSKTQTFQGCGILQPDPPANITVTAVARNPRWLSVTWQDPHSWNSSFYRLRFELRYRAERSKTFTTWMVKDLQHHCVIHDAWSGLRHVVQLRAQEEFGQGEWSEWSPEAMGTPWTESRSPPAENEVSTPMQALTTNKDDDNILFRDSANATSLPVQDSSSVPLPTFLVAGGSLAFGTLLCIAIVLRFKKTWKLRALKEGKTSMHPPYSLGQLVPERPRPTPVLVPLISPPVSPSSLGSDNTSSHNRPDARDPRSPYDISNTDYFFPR

[7] = target: T7, gp80-NT647+IL-6 (Homo sapiens, UniProt P08887;P05231, NT647 dye on primary amines of lysine residues (NHS ester)); assay: as above; settings: both partners purified
T7 construct: gp80, as m9; interleukin-6 (IL-6), as m2; also called mixture of gp80-NT647 and IL-6; source: mixture of labelled gp80 and IL-6
T7 sequence (P08887 20-468, chain 1 of 2): as the sequence (P08887 20-468) above
T7 sequence (P05231 30-212, chain 2 of 2): as the sequence (P05231 30-212) above

[8] = target: T8, IL-6-NT647+gp80 (Homo sapiens, UniProt P05231;P08887, NT647 dye on primary amines of lysine residues (NHS ester)); assay: as above; settings: both partners purified
T8 construct: interleukin-6 (IL-6), as m8; gp80, as m5; also called mixture of IL-6-NT647 and gp80; source: mixture of 10 nM IL-6NT647 and 20 nM gp80
T8 sequence (P05231 30-212, chain 1 of 2): as the sequence (P05231 30-212) above
T8 sequence (P08887 20-468, chain 2 of 2): as the sequence (P08887 20-468) above

[9] = target: T9, gp80-hscFc (UniProt P08887); assay: ELISA; IL-6, gp80 or FusionIL-6 coated at 2 μg/mL in carbonate buffer overnight at 4 °C; supernatant from HEK cells or purified VHHs added; anti-llama-HRP or anti-His-HRP; includes the initial screen
T9 construct: IL-6 receptor gp80 (CD126); hscFc is not explained in the text
T9 sequence (P08887 20-365): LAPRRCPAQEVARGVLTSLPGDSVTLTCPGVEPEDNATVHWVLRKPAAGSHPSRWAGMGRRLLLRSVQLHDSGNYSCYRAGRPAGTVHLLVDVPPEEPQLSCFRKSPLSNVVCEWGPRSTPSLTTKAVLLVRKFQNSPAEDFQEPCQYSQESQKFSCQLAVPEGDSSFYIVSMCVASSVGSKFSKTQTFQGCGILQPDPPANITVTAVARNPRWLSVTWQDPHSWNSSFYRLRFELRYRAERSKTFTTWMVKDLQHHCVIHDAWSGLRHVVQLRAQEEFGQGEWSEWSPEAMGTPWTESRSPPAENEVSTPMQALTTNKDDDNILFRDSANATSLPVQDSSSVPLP

[10] = target: T10, IL-6 with gp80-hscFc (UniProt P05231;P08887); assay: ELISA; IL-6 coated overnight and VHH6 added with gp80-hscFc, or gp80-hscFc coated overnight and VHH6 added with IL-6
T10 construct: interleukin-6 (IL-6), as m2; gp80 of gp80-hscFc, as m4; also called IL-6–gp80 complex (ELISA); source: one partner coated on the plate, the other added together with VHH6
T10 sequence (P05231 30-212, chain 1 of 2): as the sequence (P05231 30-212) above
T10 sequence (P08887 20-468, chain 2 of 2): as the sequence (P08887 20-468) above

koff [1]: 0.045 s⁻¹
B1: gp80V4 (receptor)
chain: GLAPRRCPAQEVARGAGAGDVPPEEPQLSCFRKSPLSNVVCEWGPRSTPSLTTKAVLLVRKFQNSPAEDFQEPCQYSQESQKFSCQLAVPEGDSSFYIVSMCVASSVGSKFSKTQTFQGAGILQPDPPANITVTAVARNPRWLSVTWQDPHSWNSSFYRLRFELRYRAERSKTFTTWMVKDLQHHAVIHDAWSGLRHVVQLRAQEEFGQGEWSEWSPEAMGTPWTESRSPP
modifications: N-glycosylated, high-mannose (Expi-HEK/CHO with kifunensine) for crystallography and HDX-MS. The limits and engineered changes are not given, so they are taken from the deposited 5FUC entity 2: D1 …

binding result [3]: no binding
binding result [4]: binds
binding result [5]: no binding (tested: up to 20 μM VHH6)
binding result [6]: no binding (tested: up to 20 μM VHH6)
binding result [7]: binds
binding result [8]: binds
binding result [9]: no binding
binding result [10]: binds
B4: VHH6 (VHH)
VHH: DVQFVESGGGSVHAGGSLRLNCATSGYIYSTYCMGWFRQAPGKEREGVAHIYTNSGRTYYADSVKGRFTISQDNAKNTVYLQMNSLKPEDTAIYYCAARPSIRCASFSATEYKDWGQGTQVTVSS
notes: camelid single domain antibody; The His tag is named on VHH6 for the Octet and the NTA-chip SPR; also called locking antibody; source: Expi-HEK cells, transiently transfected; in supernatant (SPR on the NTA chip) or purified; not shown: His6 (TEV-6His), C-terminal, kept

Further lines, the binder ahead of its results:

B2: VHH6 Y27A mutant (VHH)
VHH: DVQFVESGGGSVHAGGSLRLNCATSGAIYSTYCMGWFRQAPGKEREGVAHIYTNSGRTYYADSVKGRFTISQDNAKNTVYLQMNSLKPEDTAIYYCAARPSIRCASFSATEYKDWGQGTQVTVSS
notes: source: Expi-HEK cells, small scale transient expression, in supernatant; not shown: His6 (TEV-6His), C-terminal, kept
fold increase of the dissociation rate against VHH6 [2]: 1.9 fold

B3: VHH6 double mutant Ser101Ala/Lys113Ala (VHH)
VHH: DVQFVESGGGSVHAGGSLRLNCATSGYIYSTYCMGWFRQAPGKEREGVAHIYTNSGRTYYADSVKGRFTISQDNAKNTVYLQMNSLKPEDTAIYYCAARPAIRCASFSATEYADWGQGTQVTVSS
notes: also called double mutant 113/101; source: Expi-HEK cells, small scale transient expression, in supernatant; not shown: His6 (TEV-6His), C-terminal, kept
fold increase of the dissociation rate against VHH6 [2]: 4.3 fold

B5: VHH6 double mutant Asn74Ala/Ser101Ala (VHH)
VHH: DVQFVESGGGSVHAGGSLRLNCATSGYIYSTYCMGWFRQAPGKEREGVAHIYTNSGRTYYADSVKGRFTISQDAAKNTVYLQMNSLKPEDTAIYYCAARPAIRCASFSATEYKDWGQGTQVTVSS
notes: also called double mutant 74/101; source: Expi-HEK cells, small scale transient expression, in supernatant; not shown: His6 (TEV-6His), C-terminal, kept
fold increase of the dissociation rate against VHH6 [2]: 3.8 fold
